{"source": "patent US20240374719A1", "about": "(BIOINVENT INTERNATIONAL, published 2024)", "key": {"[1]": {"biological_target": "T1, human CTLA4-Fc (R&D Systems) (human, UniProt P16410 36-161)", "T1 construct": "extracellular domain; Bought reagent; also called rhCTLA-4-Fc; hCTLA-4; not shown: Fc part of the bought fusion protein; not described", "T1 sequence (P16410 36-161)": "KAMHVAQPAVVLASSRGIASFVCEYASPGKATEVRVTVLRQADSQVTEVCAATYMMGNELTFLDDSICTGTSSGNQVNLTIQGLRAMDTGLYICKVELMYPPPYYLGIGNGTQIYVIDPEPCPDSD", "assay": "by the legend: binding to immobilized recombinant hCTLA-4 protein as in FIG. 1E; the y axis reads 'IgG binding (geomean; x10^3)' [contd.) G]"}, "[2]": {"biological_target": "T1, human CTLA4-Fc (R&D Systems)", "assay": "ligand-blocking ELISA: human CTLA4-Fc coated, antibody titrated, His-tagged rhCD80 added and detected with anti-His-HRP [contd.) G, panel hCD80]"}, "[3]": {"biological_target": "T1, human CTLA4-Fc (R&D Systems)", "assay": "ligand-blocking ELISA: human CTLA4-Fc coated, antibody titrated, His-tagged rhCD86 added and detected with anti-His-HRP [contd.) G, panel hCD86]"}, "[4]": {"biological_target": "T1, human CTLA4-Fc (R&D Systems)", "assay": "ELISA, luminescence: antigen coated, antibody titrated [contd.) E]"}, "[5]": {"biological_target": "T2, mouse CTLA4-Fc (Sino Biological) (mouse, UniProt P09793 36-162, limits assumed)", "T2 construct": "Bought reagent; also called mouse CTLA-4 protein; recombinant CTLA-4; not shown: Fc part of the bought fusion protein; not described", "assay": "ELISA, luminescence: antigen coated, antibody titrated [contd.) E]"}, "[6]": {"biological_target": "T3, human CD28-Fc (R&D Systems) (human, UniProt P10747 19-152)", "T3 construct": "Bought reagent; also called human homologue CD28; not shown: Fc part of the bought fusion protein; not described", "assay": "ELISA, luminescence: antigen coated, antibody titrated [contd.) E]"}, "[7]": {"biological_target": "T4, human CTLA-4 protein (Sino Biological), soluble (human, UniProt P16410 36-162, limits assumed)", "T4 construct": "Analyte of the Biacore experiment; also called soluble human CTLA-4", "T4 sequence (P16410 36-162 limits assumed)": "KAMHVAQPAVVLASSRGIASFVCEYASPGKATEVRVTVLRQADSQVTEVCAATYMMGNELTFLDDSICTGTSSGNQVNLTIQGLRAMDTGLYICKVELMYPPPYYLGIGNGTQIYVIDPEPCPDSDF", "assay": "SPR (Biacore 3000); mAb captured by immobilised anti-human Fc, soluble human CTLA-4 injected (1.6 to 50 nM)"}, "cmCTLA-4": {"biological_target": "T5, cmCTLA-4 (Macaca fascicularis, UniProt G7PL88)", "T5 construct": "recombinant protein coated for ELISA; also called cynomolgus CTLA-4; cynomolgus monkey CTLA-4", "T5 sequence (G7PL88 entry or part of it)": "as the sequence (P16410 36-161) above, with S14N, I18T, L106M counted along it", "assay": "ELISA, luminescence: antigen coated, antibody titrated [contd.) E]"}, "[8]": {"biological_target": "T4, human CTLA-4 protein (Sino Biological), …", "assay": "SPR (Biacore): antibody at 5 nM captured on immobilized anti-human Fc, human CTLA-4 protein injected at rising concentrations [contd.) C, upper panel]"}, "[9]": {"biological_target": "T1, human CTLA4-Fc (R&D Systems)", "assay": "by the legend: binding to immobilized recombinant hCTLA-4 protein as in FIG. 1E; 4-E03 purified from BT-001-infected MIA PaCa-2 cells; the y axis reads 'IgG binding (geomean; x10^3)' [contd.) G]"}, "[10]": {"biological_target": "T2, mouse CTLA4-Fc (Sino Biological)", "assay": "ligand-blocking ELISA: mouse CTLA4-Fc coated, antibody titrated, His-tagged mouse CD80 added and detected with anti-His-HRP [contd.) J, panel mCD80]"}, "[11]": {"biological_target": "T2, mouse CTLA4-Fc (Sino Biological)", "assay": "ELISA, luminescence: mouse CTLA4-Fc coated, 5-B07 mIgG2a titrated in 3-fold steps [contd.) E]"}, "[12]": {"biological_target": "T2, mouse CTLA4-Fc (Sino Biological)", "assay": "ligand-blocking ELISA: mouse CTLA4-Fc coated, antibody titrated, His-tagged mouse CD86 added and detected with anti-His-HRP [contd.) J, panel mCD86]"}, "[13]": {"biological_target": "T6, mouse CTLA-4 on transfected cells (mouse, UniProt P09793 36-223)", "T6 construct": "whole, on cells; also called mCTLA-4-transfected cells; mouse CTLA-4 transfected CHO cells", "assay": "flow cytometry on mCTLA-4-transfected cells, antibody titrated [contd.) I]"}}, "data": [{"binder": "4-E03 hIgG1 (anti-human CTLA-4, human IgG1) (antibody, V domains shown, Human IgG1 lambda, recombinant (HEK 293 EBNA); also called 4-E03 IgG1; anti-hCTLA-4 (4-E03)) VH: EVQLLESGGGLVQPGGSLRLSCAASGFTFSDYYMSWVRQAPGKGLEWVSGISWSSRDKGYADSVKGRFTISRDNSKNTLYLQMNSLRAEDTAVYYCTTDLARYWGQGTLVTVSS VL: QSVLTQPPSASGTPGQRVTISCTGSSSNIGAGYDVHWYQQLPGTAPKLLIYGNDNRPSGVPDRFSGSKSGTSASLAISGLRSEDEADYYCAVWDDSLNGVVFGGGTKLTVLG", "values": [{"measurement": "EC50 (read off the curve)", "setting": "[1]", "result": "~6", "unit": "nM"}, {"measurement": "IC50 (read off the curve)", "setting": "[2]", "result": "~1", "unit": "nM"}, {"measurement": "IC50 (read off the curve)", "setting": "[3]", "result": "~0.4", "unit": "nM"}, {"measurement": "EC50 (read off the curve)", "setting": "[4]", "result": "~0.3", "unit": "nM"}, {"measurement": "binding result", "setting": "[5]", "result": "binds"}, {"measurement": "binding result", "setting": "[6]", "result": "no binding (tested: about 20 nM)"}, {"measurement": "Kd", "setting": "[7]", "result": 0.6, "unit": "nM"}, {"measurement": "EC50 (read off the curve)", "setting": "cmCTLA-4", "result": "~0.3", "unit": "nM"}, {"measurement": "Kd", "setting": "[8]", "result": 0.4, "unit": "nM"}, {"measurement": "EC50 (read off the curve)", "setting": "[9]", "result": "~4", "unit": "nM"}]}, {"binder": "2-C06 (anti-human CTLA-4 antibody clone) (antibody, human IgG1, V domains shown, Tested as human IgG1 (lambda light chain)) VH: EVQLLESGGGLVQPGGSLRLSCAASGFTFSSYAMSWVRQAPGKGLEWVSGISGSGGYIHYADSVKGRFTISRDNSKNTLYLQMNSLRAEDTAVYYCATYSSGLHDAFDIWGQGTLVTVSS VL: QSVLTQPPSASGTPGQRVTISCTGSSSNIGAGYDVHWYQQLPGTAPKLLIYDNNKRPSGVPDRFSGSKSGTSASLAISGLRSEDEADYYCAAWDDSLNGWVFGGGTKLTVLG", "values": [{"measurement": "IC50 (read off the curve)", "setting": "[2]", "result": "~1", "unit": "nM"}, {"measurement": "IC50 (read off the curve)", "setting": "[3]", "result": "~0.4", "unit": "nM"}]}, {"binder": "5-B07 mIgG2a (anti-mouse CTLA-4, mouse IgG2a) (antibody, V domains shown, The protein in the assay lacks the signal peptide; also called anti-mCTLA-4 (5-B07); mouse surrogate antibody 5-B07 mIgG2a) VH: EVQLLESGGGLVQPGGSLRLSCAASGFTFSSYSMNWVRQAPGKGLEWVSAISGSGGSTYYADSVKGRFTISRDNSKNTLYLQMNSLRAEDTAVYYCARDRVEMNQWLADWGQGTLVTVSS VL: not shown", "values": [{"measurement": "IC50 (read off the curve)", "setting": "[10]", "result": "~2", "unit": "nM"}, {"measurement": "EC50 (read off the curve)", "setting": "[11]", "result": "~0.7", "unit": "nM"}, {"measurement": "IC50 (read off the curve)", "setting": "[12]", "result": "~0.6", "unit": "nM"}, {"measurement": "EC50 (read off the curve)", "setting": "[13]", "result": "~0.8", "unit": "µg/mL"}]}, {"binder": "ipilimumab (antibody, V domains shown) VH: QVQLVESGGGVVQPGRSLRLSCAASGFTFSSYTMHWVRQAPGKGLEWVTFISYDGNNKYYADSVKGRFTISRDNSKNTLYLQMNSLRAEDTAIYYCARTGWLGPFDYWGQGTLVTVSS VL: not shown", "values": [{"measurement": "EC50 (read off the curve)", "setting": "cmCTLA-4", "result": "~0.2", "unit": "nM"}]}]}
